{"source": "patent US20110263014", "proteins": {"B1": {"name": "recombinant active caspase-3 (protein)", "chain": "SGISLDNSYKMDYPEMGLCIIINNKNFHKSTGMTSRSGTDVDAANLRETFRNLKYEVRNKNDLTREEIVELMRDVSKEDHSKRSSFVCVLLSHGEEGIIFGTNGPVDLKKITNFFRGDRCRSLTGKPKLFIIQACRGTELDCGIETDSGVDDDMACHKIPVEADFLYAYSTAPGYYSWRNSKDGSWFIQSLCAMLKQYADKLEFMHILTRVNRKVATEFESFSFDATFHAKKQIPCIVSMLTKELYFYH"}}, "key": {"[1]": {"target": "T1, mouse Nanog (mNanog), Q80Z64", "T1 chain": "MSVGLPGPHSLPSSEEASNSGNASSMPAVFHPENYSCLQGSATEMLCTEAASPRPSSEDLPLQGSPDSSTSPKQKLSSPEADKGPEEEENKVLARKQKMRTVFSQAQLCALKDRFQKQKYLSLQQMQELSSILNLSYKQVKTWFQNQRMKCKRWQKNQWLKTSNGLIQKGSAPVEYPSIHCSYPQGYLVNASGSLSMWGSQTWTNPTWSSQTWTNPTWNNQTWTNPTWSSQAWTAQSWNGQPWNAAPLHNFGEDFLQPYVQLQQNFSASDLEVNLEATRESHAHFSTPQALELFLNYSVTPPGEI"}, "[2]": {"target": "in vitro-translated human Nanog (hNanog), Q9H9S0", "sequence (Q9H9S0 whole entry)": "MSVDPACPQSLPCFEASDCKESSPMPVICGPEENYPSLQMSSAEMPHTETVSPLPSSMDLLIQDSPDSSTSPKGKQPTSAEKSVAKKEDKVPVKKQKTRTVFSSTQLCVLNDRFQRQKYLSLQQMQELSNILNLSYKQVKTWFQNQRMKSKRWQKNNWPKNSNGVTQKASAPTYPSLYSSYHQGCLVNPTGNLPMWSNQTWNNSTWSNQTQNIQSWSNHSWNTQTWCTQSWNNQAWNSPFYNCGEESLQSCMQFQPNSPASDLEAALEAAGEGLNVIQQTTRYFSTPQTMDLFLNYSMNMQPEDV"}}}
{"protein": "B1", "values": [{"measurement": "in vitro caspase-3 cleavage assay", "setting": "Oct4", "value": "remained uncleaved (data not shown)"}, {"measurement": "cleavage of immunoprecipitated mNanog by recombinant caspase", "setting": "[1]", "value": "Only caspase-9 effectively cleaved mNanog into a 27 kDa fragment"}, {"measurement": "in vitro caspase-3 cleavage assay", "setting": "[1]", "value": "very little or no cleavage of recombinant mNanog by caspase-3 was observed"}, {"measurement": "in vitro caspase-3 cleavage assay", "setting": "Sox2", "value": "remained uncleaved (data not shown)"}, {"measurement": "in vitro caspase-3 cleavage assay", "setting": "[2]", "value": "Caspase-3 cleaved human (h) Nanog in vitro"}]}
